Laboratory results published in patent US20040259779A1.

Columns and labels:
[1] = molecular target: combination of receptor ALK4 and receptor ActRIIB; experiment: cell-based or functional assay
[2] = molecular target: combination of receptor ALK7 and receptor ActRIIB; experiment: cell-based or functional assay

Substance: Neuronal Survival and Growth Factor 3 (NSG3) (ligand)
- luciferase activity of the Smad3-specific pCAGA-luc reporter in HepG2 cells co-expressing ALK4, ActRIIB and NsG-3 (basal without NsG-3 approx. 2) (arbitrary units) [1]: 7
- luciferase activity of the Smad3-specific pCAGA-luc reporter in HepG2 cells co-expressing ALK7, ActRIIB and NsG-3 (basal without NsG-3 approx. 9) (arbitrary units) [2]: 33
